Source: paper PMC3327698, “Binding Properties and Stability of the Ras-Association Domain of Rap1-GTP Interacting Adapter Molecule (RIAM)” (PLoS ONE, 2012)

B1: GST-RIAM150-261 (RA domain) (domain or fragment, human, UniProt Q7Z5R6 150-261, looked up)
chain: SQEEEEAQAKADKIKLALEKLKEAKVKKLVVKVHMNDNSTKSLMVDERQLARDVLDNLFEKTHCDCNVDWCLYEIYPELQIERFFEDHENVVEVLSDWTRDTENKILFLEKE
notes: Modified pGEX-4T3 vector with a TEV protease site between GST and RIAM; also called RIAM RA domain construct; GST-RIAM-RA; source: E. coli BL21 GOLD, purified (Glutathione Sepharose, SEC); not shown: GST, N-terminal, kept
B2: Rap1B (amino acids 1-167) (domain or fragment, UniProt P61224 1-167, looked up)
chain: MREYKLVVLGSGGVGKSALTVQFVQGIFVEKYDPTIEDSYRKQVEVDAQQCMLEILDTAGTEQFTAMRDLYMKNGQGFALVYSITAQSTFNDLQDLREQILRVKDTDDVPMILVGNKCDLEDERVVGKEQGQNLARQWNNCAFLESSAKSKINVNEIFYDLVRQINR
notes: small GTPase Rap1B, amino acids 1-167 (C-terminus excluded); loaded with Gpp(NH)p or GDP before the assay; One molecule for both nucleotide states; Construct pGEX-4T3/Rap1B came from A. Wittinghofer; also called Rap1B-Gpp(NH)p; Rap1B-GTP; source: E. coli BL21 GOLD, purified (Glutathione Sepharose, nucleotide exchange, SEC)

Experiments:
[1] = target: B2; assay: pull-down; quantitative: GST-RIAM on Glutathione Sepharose 4B; Rap1B-Gpp(NH)p at 0.05, 0.1, 0.3, 0.5, 0.7 and 1.0 µM; Buffer A; anti-Rap1 Western blot, densitometry, nonlinear regression (GraphPad Prism); conditions: both partners purified
[2] = target: T1, GST-RIAM150-502 (RA and PH domains) (human, UniProt Q7Z5R6 150-502); assay: as above; conditions: both partners purified
T1 construct: Modified pGEX-4T3 vector with a TEV protease site; also called RA-PH domain pair; source: E. coli BL21 GOLD, purified (Glutathione Sepharose, SEC); not shown: GST, N-terminal, kept
T1 sequence (looked up): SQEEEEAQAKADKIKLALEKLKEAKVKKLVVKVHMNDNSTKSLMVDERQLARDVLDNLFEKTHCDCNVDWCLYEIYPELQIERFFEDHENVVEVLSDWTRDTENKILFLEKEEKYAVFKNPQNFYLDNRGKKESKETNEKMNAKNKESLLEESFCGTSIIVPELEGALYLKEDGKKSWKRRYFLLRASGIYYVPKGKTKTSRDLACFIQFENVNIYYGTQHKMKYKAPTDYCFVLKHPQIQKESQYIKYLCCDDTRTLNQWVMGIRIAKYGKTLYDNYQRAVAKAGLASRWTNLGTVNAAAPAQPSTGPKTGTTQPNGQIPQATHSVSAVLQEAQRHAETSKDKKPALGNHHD

B1
Kd [1]: 330 ± 90 nM

B2
Kd [2]: 700 ± 400 nM
